Values quoted from earlier work as cited in publication PMC5429092.

Biological target: PP1 (Homo sapiens) (UniProt P62136)
Experiment: ITC

Sequence of UniProt P62136 (P62136 2-330): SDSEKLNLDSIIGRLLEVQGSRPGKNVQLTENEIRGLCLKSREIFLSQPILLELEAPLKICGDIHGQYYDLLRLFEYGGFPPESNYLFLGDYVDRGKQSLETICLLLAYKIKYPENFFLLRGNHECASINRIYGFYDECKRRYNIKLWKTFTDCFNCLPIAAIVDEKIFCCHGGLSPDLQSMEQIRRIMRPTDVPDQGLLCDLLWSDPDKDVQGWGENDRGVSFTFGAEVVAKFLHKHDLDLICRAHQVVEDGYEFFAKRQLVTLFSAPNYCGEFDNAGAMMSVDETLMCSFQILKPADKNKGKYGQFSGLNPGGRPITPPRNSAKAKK

Question: Which Kd does the source give for PPP1R15A (from UniProt O75807) here?
Answer: The Kd was 62 nM.
